From publication PMC3343046, “Overexpression of the Catalytically Impaired Taspase1^T234V or Taspase1^D233A Variants Does Not Have a Dominant Negative Effect in T(4;11) Leukemia Cells” (PLoS ONE, 2012)
Where a chain is given by its changes, count along the chain named. Numbers in names are those of the source. Values belong to the binder of their own block, whether it stands above or below them.

Target: T1, TaspCyt (GFP-tagged Taspase1 with a C-terminal nuclear export signal) (human, UniProt Q9H6P5 1-420)
T1 construct: Threonine Aspartase 1 (Taspase1), human, 420 aa; open reading frame cloned from MV4;11 and THP-1 cells; Still catalytically active, so probably processed in cells into α- and β-subunits; also called GFP-TaspCyt; pTaspcyt; source: HeLa, transfected, in living cells; not shown: NES (strong nuclear export signal), C-terminal, kept
T1 sequence (looked up): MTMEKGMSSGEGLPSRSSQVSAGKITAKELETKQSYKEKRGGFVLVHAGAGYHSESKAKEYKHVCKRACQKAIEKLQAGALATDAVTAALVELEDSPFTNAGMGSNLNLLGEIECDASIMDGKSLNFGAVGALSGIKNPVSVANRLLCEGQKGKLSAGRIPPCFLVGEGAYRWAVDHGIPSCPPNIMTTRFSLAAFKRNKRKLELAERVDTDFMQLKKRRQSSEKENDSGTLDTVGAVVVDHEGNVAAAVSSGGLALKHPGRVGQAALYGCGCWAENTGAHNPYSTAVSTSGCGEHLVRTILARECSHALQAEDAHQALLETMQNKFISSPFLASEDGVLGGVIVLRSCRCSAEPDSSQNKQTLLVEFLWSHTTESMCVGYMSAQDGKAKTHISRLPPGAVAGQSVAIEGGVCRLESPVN
Assay: translocation-based protein interaction assay; living HeLa transfectants, 24 h after transfection; nuclear/nucleolar recruitment of a cytoplasmic fluorescent fusion by a nuclear/nucleolar fusion; fluorescence microscopy, and confocal microscopy with the Manders overlap coefficient R
Conditions: partners not purified

Manders overlap coefficient R: 0.387
B1: Taspase1-mCherry (wild type) (enzyme, human, UniProt Q9H6P5 1-420, looked up)
chain: T1 sequence (looked up)
notes: Threonine Aspartase 1 (Taspase1), human, 420 aa; open reading frame cloned from MV4;11 and THP-1 cells; The wild-type proenzyme is autoproteolytically processed in cells into α- and β-subunits; also called Tasp-mCherry; Tasp-mCh; source: HeLa, transfected, in living cells

Manders overlap coefficient R: 0.394
B2: Tasp^D233A-mCherry (enzyme, human, UniProt Q9H6P5 1-420, looked up)
chain: T1 sequence (looked up) with D233A
notes: Threonine Aspartase 1 (Taspase1), human, 420 aa, with Asp233 changed to Ala; Impaired in autoproteolytic cis-cleavage; also called Taspase1^D233A-mCherry; highly attenuated Taspase1 variant; source: HeLa, transfected, in living cells

Manders overlap coefficient R: 0.388
B3: Tasp^T234V-mCherry (enzyme, human, UniProt Q9H6P5 1-420, looked up)
chain: T1 sequence (looked up) with T234V
notes: Threonine Aspartase 1 (Taspase1), human, 420 aa, with Thr234 changed to Val; Not autoprocessed; stays a proenzyme; also called Taspase1^T234V-mCherry; catalytically dead Taspase1 mutant; source: HeLa, transfected, in living cells
